T1: Activin A (UniProt P08476 311-426)
T1 sequence (looked up): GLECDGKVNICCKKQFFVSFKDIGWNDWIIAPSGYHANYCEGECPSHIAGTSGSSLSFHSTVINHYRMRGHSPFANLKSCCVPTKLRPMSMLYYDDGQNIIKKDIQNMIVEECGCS

T2: Activin B (UniProt P09529 293-407)
T2 sequence (looked up): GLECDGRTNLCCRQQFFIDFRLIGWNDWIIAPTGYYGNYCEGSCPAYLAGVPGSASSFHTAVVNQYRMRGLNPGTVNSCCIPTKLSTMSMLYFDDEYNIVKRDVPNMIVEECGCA

T3: BMP-9, Q9UK05
T3 chain: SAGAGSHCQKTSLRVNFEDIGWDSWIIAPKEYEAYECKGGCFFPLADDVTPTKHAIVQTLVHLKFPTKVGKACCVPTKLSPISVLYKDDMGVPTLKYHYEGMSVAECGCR

B1: ActRIIB (SEQ ID NO: 17)-Fc (Fc fusion, not shown: a dimerising Fc or GST)
chain: GRGEAETRECIYYNANWELERTNQSGLERCEGEQDKRLHCYASWRNSSGTIELVKKGCWLDDFNCYDRQECVATEENPQVYFCCCEGNFCNERFTHLPEAGGPEVTYEPPPTAPT
notes: Recombinant wild-type extracellular ActRIIB-Fc; also called ActRIIB-Fc
B2: growth differentiation factor 11 (GDF11) (ligand, UniProt O95390 299-407, looked up)
chain: NLGLDCDEHSSESRCCRYPLTVDFEAFGWDWIIAPKRYKANYCSGQCEYMFMQKYPHTHLVQQANPRGSAGPCCTPTKMSPINMLYFNDKQQIIYGKIPGMVVDRCGCS
B3: BMP-9 (ligand, UniProt Q9UK05 320-429, looked up)
chain: SAGAGSHCQKTSLRVNFEDIGWDSWIIAPKEYEAYECKGGCFFPLADDVTPTKHAIVQTLVHLKFPTKVGKACCVPTKLSPISVLYKDDMGVPTLKYHYEGMSVAECGCR
notes: also called bone morphogenetic protein 9

Assays:
Assay in all cases: SPR (Biacore 3000), Fc fusion captured, ligand in solution
Activin A = biological target: T1, Activin A
Excerpt: (§1) The GE Biacore 3000 was used to measure the kinetics of the interactions between the ActRIIB-Fc variants and the ligands Activin A, Activin B, growth differentiation factor 11 (GDF11), and BMP-9. […] All other ActRIIB-Fc variants were expressed by transient expression in HEK293 cells and purified from the conditioned media using Protein-A Sepharose chromatography. Flow cells 1-4 were immobilized with anti-human/anti-mouse capture antibodies from GE using the amine coupling kit. The ActRII-Fc proteins were then captured on the chip in flow cells 2-4, with flow cell 1 being left empty as a reference cell to measure and subtract any nonspecific binding. HBS-EP+ buffer from GE Healthcare™ was used as a running buffer. Each ligand was run in a duplicate concentration series at 40 μl/min to avoid mass transport effects. All data was collected on a CM-5 chip except for GDF-11, which used CM-4. The data was analyzed using Scrubber2 by BioLogic™ Software to calculate the KD of each interaction (Table 4).

Activin B = biological target: T2, Activin B
Excerpt: as §1

[1] = biological target: B2
Excerpt: as §1

BMP-9 = biological target: B3
Excerpt: as §1

[2] = biological target: B1
Excerpt: as §1

BMP-9, Q9UK05 = biological target: T3, BMP-9, Q9UK05; conditions: remark: other sources report otherwise

Kd (Activin A) | Kd (Activin B) | Kd [1] | Kd (BMP-9) | Binder | also measured
0.063 nM | 0.023 nM | – | – | B1 | –
0.14 nM | 0.16 nM | 0.13 nM | 31 nM | ActRIIB 2.12 variant (SEQ ID NO: 15)-Fc (Fc fusion, not shown: a dimerising Fc or GST, Engineered variant of the human ActRIIB extracellular portion; recombinant protein) GRGEAETRECLYYNANWELERTNQSGVERCEGEKDKRLHCYASWRNSSGSLEIVKKGCWLDDFNCYDRDTCVATKENPQVYFCCCEGNMCNERFTHLPEAGGPEVTYEPPPTAPT | –
– | – | – | – | B2 | Kd [2]: 0.12 nM
0.053 nM | 0.1 nM | 0.027 nM | 0.3 nM | ActRIIB 2.06 variant (SEQ ID NO: 9)-Fc (Fc fusion, not shown: a dimerising Fc or GST, Engineered variant of the human ActRIIB extracellular portion; recombinant protein; also called ActRIIB variant 2.06-hFc) GRGEAETRECIYYNANWELERTNQSGLERCEGEQDKRLHCFASWKNSSGTIELVKQGCWLDDFNCYDRQECVAKKDSPEVYFCCCEGNFCNERFTHLPEAGGPEVTYEPPPTAPT | –
390 nM | 400 nM | 530 nM | 28 nM | ActRIIBΔ9 variant (SEQ ID NO: 3)-Fc (Fc fusion, not shown: a dimerising Fc or GST, Engineered variant of the human ActRIIB extracellular portion) GRGEAETRECIYYNANWELDRTNQSGLERCEGEQDKRLHCYASWRNSSGTIELVKKGCWLDDINCYDRQECVATKENPQVYFCCCEGNFCNERFTHLPEAGGPEVTYEPPPTAPT | –
0.78 nM | 0.37 nM | 0.24 nM | 2.7 nM | ActRIIB 2.11 variant (SEQ ID NO: 14)-Fc (Fc fusion, not shown: a dimerising Fc or GST, Engineered variant of the human ActRIIB extracellular portion; recombinant protein) GRGEAETRECLYYNANWELERTNQSGVERCEGEKDKRLHCYASWRNSSGSLEIVKKGCWLDDFNCYDRTDCVATKENPQVYFCCCEGNMCNERFTHLPEAGGPEVTYEPPPTAPT | –
0.45 nM | 0.28 nM | – | 1.7 nM | ActRIIB 2.10 variant (SEQ ID NO: 13)-Fc (Fc fusion, not shown: a dimerising Fc or GST, Engineered variant of the human ActRIIB extracellular portion; also called ActRIIB variant 2.10-hFc) GRGEAETRECLYYNANWELERTNQSGVERCEGEKDKRLHCYASWRNSSGSLEIVKKGCWLDDFNCYDRDTCVATEENPQVYFCCCEGNMCNERFTHLPEAGGPEVTYEPPPTAPT | –
– | – | – | – | ActRIIB 2.05 variant (SEQ ID NO: 8)-Fc (Fc fusion, not shown: a dimerising Fc or GST, Engineered variant of the human ActRIIB extracellular portion) GRGEAETRECIYYNANWELERTNQSGLERCYGDKDKRLHCYASWRNSSGTIELVKKGCWLDDFNCYDRQECVAKKDSPEVYFCCCEGNFCNERFTHLPEAGGPEVTYEPPPTAPT | binding result (BMP-9): no binding
0.1 nM | 0.16 nM | – | 0.44 nM | ActRIIB 2.09 variant (SEQ ID NO: 12)-Fc (Fc fusion, not shown: a dimerising Fc or GST, Engineered variant of the human ActRIIB extracellular portion; also called ActRIIB variant 2.09-hFc) GRGEAETRECLYYNANWELERTNQSGVERCEGEKDKRLHCYASWRNSSGSLEIVKKGCWLDDFNCYDRTDCVATEENPQVYFCCCEGNMCNERFTHLPEAGGPEVTYEPPPTAPT | –
– | – | – | – | B3 | Kd [2]: 0.28 nM
– | – | – | – | ActRIIB/A variant (SEQ ID NO: 2)-Fc (Fc fusion, not shown: a dimerising Fc or GST, Engineered variant of the human ActRIIB extracellular portion; expressed transiently in HEK293 and Protein A purified (SPR); conditioned media in the reporter assay; also called ActRIIB/A-Fc) GRGEAETRECIFYNANWEKDRTNQSGLEPCYGDQDKRRHCFASWKNSSGTIELVKQGCWLDDINCYDRQECVAKKDSPEVYFCCCEGNFCNERFTHLPEAGGPEVTYEPPPTAPT | binding result (Activin A): no binding; binding result (Activin B): no binding; binding result [1]: no binding; Kd (BMP-9, Q9UK05): 88 nM

Source: patent US20230087128A1 (KEROS THERAPEUTICS, published 2023)
